Source: the MegaScale stability set (Tsuboyama et al. 2023)

B1: HHH_rd1_0493 (parent)
chain: RDEDEKEKIKEALKRGNEDKAKEIAKRANVSPEEYERLRKEAE

Variants of: B1
Experiment: folding stability dG (cDNA display proteolysis); higher = more stable
Settings: PBS, room temperature

Folding stability dG [kcal/mol], by site and new letter:
K10: A 1.09; C 2.32; D 0.644
R1: S 3.15; H 3.11; T 3.28; P 3.19; I 3.2; Q 3.1; Y 3.11; L 3.08; V 3.22; N 3.16; K 3.12; M 3.03; W 3.04
E7: D 2.7; N 2.96; A 3.08; H 2.94; Y 2.85; W 3.29; L 3.09; R 3.15; Q 3.13; K 3.1; V 2.97; G 2.62; F 3; T 3; M 3.12; P 1.58; I 3.06; S 2.92
K8: Y 2.09; A 3.29; W 2.44; H 2.42; C 2.37; D 2.25; I 2.1; L 3.06; V 1.94; P 0.847; F 2.12; R 3; G 2.34; E 2.66; N 2.55; T 2.27; S 2.78; M 3.08; Q 3.15
D4: L 3.01; K 2.81; E 2.98; I 2.95; P 2.48; N 2.89; Q 2.88; A 2.83; C 2.96; G 2.8; F 2.73; T 2.91; H 2.82; R 2.88; Y 2.9; M 2.96; V 2.88; W 3.02; S 3.03
I9: F 0.774; R 0.406; K 0.396; L 2.28; Y 0.577; V 2.09; E 0.589; W 0.614; Q 0.476; S 0.587; T 0.61; C 1.26; H 0.471; N 0.856; A 0.796; D 0.479; G 0.603; P 0.579; M 1.48
K6: L 3.25; W 3.32; C 1.8; H 3.07; S 2.56; A 2.57; I 3.24; G 2.46; R 3.3; V 2.74; E 2.27; M 3.11; D 1.85; N 2.53; F 3.23; T 2.61; P 1.72; Q 2.39; Y 3.4
D2: N 3; I 3.21; G 2.95; R 2.79; Q 3.15; K 2.82; P 3.06; A 2.87; V 3.17; S 2.71; Y 3.38; L 3.39; C 2.94; F 3.22; T 3.03; M 2.86; H 3.05; E 3.11; W 3.17
E3: W 3; T 2.94; N 3; Q 3.06; I 2.75; F 2.93; P 2.79; R 2.93; K 2.93; D 3.11; Y 3.01; G 2.88; A 2.88; S 2.89; L 2.89; M 2.81; C 2.57; V 2.76; H 3
E5: S 3.02; G 2.08; Q 2.87; D 3; W 4.45; H 3.3; N 2.71; Y 4.39; T 3.37; A 3.7; L 3.6; M 3.33; C 2.42; V 4.07; K 2.24; F 4.03; I 4.07; R 2.1; P 3.46
